Where two headings read alike, the source gives them in different places.
Tests used:
[1] = biological target: T1, NYESOAApMHC (HLA-A*0201:NYESO1-9VAA), biotinylated recombinant complex (human); assay: SPR (ProteOn), biotinylated pMHC on NLC chip
[2] = biological target: T2, EBNApMHC (HLA-A*0201:EBNA-1), biotinylated recombinant complex (human; Epstein Barr virus); assay: SPR (ProteOn), biotinylated pMHC on NLC chip
[3] = biological target: T3, NYESOpMHC (HLA-A*0201:NYESO1-9V), biotinylated recombinant complex (human); assay: SPR (ProteOn), biotinylated pMHC on NLC chip, PBS with Tween
T3 construct: also called NY-ESO-1 peptide-MHC complex

[4] = biological target: T4, NYESOpMHC on T2 cells pulsed with NY-ESO-1-9V (157-165) peptide
[5] = biological target: T4, NYESOpMHC on T2 cells pulsed with …; remark: listed apart in the source
[6] = biological target: T4, NYESOpMHC on T2 cells pulsed with …; assay: flow cytometry on T2 cells pulsed with NY-ESO-1-9V (157-165) peptide
[7] = biological target: T2, EBNApMHC (HLA-A*0201:EBNA-1), …
[8] = biological target: T1, NYESOAApMHC (HLA-A*0201:NYESO1-9VAA), …; assay: SPR (ProteOn), biotinylated NYESOAApMHC on the chip
[9] = biological target: T3, NYESOpMHC (HLA-A*0201:NYESO1-9V), …
[10] = biological target: T1, NYESOAApMHC (HLA-A*0201:NYESO1-9VAA), …
[11] = biological target: T2, EBNApMHC (HLA-A*0201:EBNA-1), …; assay: SPR (ProteOn), biotinylated EBNApMHC on the chip

B1: DARPin® protein #20 (designed binder)
chain: MRGSHHHHHHGSDLGKKLLQAARAGQLDEVRELLKAGADVNAKDQSGATPLHLAAFRGHLEIVEVLLKAGADVNAKDAAGYTPLHIAAVYGHLEIVEVLLKAGADVNAKDSAGETPLHLAAYAGHLEIVEVLLKAGADVNAQDKSGKTPADLAARAGHQDIAEVLQKAA
- binding result [1]: no binding
- binding result [2]: no binding (tested: 3.7 nM to 300 nM, or 250 nM single trace)
- Kd [3]: 5790 pM
- EC50 [4]: 0.0206 µM

B2: DARPin® protein #22 (designed binder)
chain: MRGSHHHHHHGSDLGKKLLQAARAGQLDEVRELLKAGADVNAKDAIGFTPLHLAAFSGHLEIVEVLLKAGADVNAKDVAGYTPLHVAALYGHLVIVEVLLKAGADVNAKDKAGETPLHLAAFAGHLEIVEVLLKAGADVNAQDKSGKTPADLAARAGHQDIAEVLQKAA
- binding result [1]: no binding
- binding result [2]: no binding (tested: 3.7 nM to 300 nM, or 250 nM single trace)
- Kd [3]: 68.5 pM
- EC50 (read off the curve) [5]: ~0.003 µM
- EC50 [4]: 0.0037 µM

B3: BP DARPin® protein #21/#22 (designed binder)
chain: GSDLGKKLLQAARAGQLDEVRELLKAGADVNAKDLIGVTPLHLAAFSGHLEIVEVLLKASADVNAKDVSGRTPLHVAAKHGHLEIVEVLLKAGADVNAKDLIGFTPLHLAAQFGHLEIVEVLLKAGADVNAQDKSGKTPADLAARAGHQDIAEVLQKAAGSPTPTPTTPTPTPTTPTPTPTGSDLGKKLLQAARAGQLDEVRELLKAGADVNAKDAIGFTPLHLAAFSGHLEIVEVLLKAGADVNAKDVAGYTPLHVAALYGHLVIVEVLLKAGADVNAKDKAGETPLHLAAFAGHLEIVEVLLKAGADVNAQDKSGKTPADLAARAGHQDIAEVLQKAA
- EC50 [6]: 0.0014 µM

B4: DARPin® protein #21 (designed binder)
chain: MRGSHHHHHHGSDLGKKLLQAARAGQLDEVRELLKAGADVNAKDLIGVTPLHLAAFSGHLEIVEVLLKASADVNAKDVSGRTPLHVAAKHGHLEIVEVLLKAGADVNAKDLIGFTPLHLAAQFGHLEIVEVLLKAGADVNAQDKSGKTPADLAARAGHQDIAEVLQKAA
- KD (fit header over a trace without response) [7]: 3050 µM
- Ka (fit header over a trace without response) [7]: 2.78e-08 M⁻¹ s⁻¹
- kd (fit header over a trace without response) [7]: 8.5e-11 s⁻¹
- binding result [8]: no binding
- koff [9]: 0.000473 s⁻¹
- kon [9]: 549000 M⁻¹ s⁻¹
- Kd [3]: 861 pM
- KD (fit header over a trace without response) [10]: 0.846 pM
- Ka (fit header over a trace without response) [10]: 8.23e+06 M⁻¹ s⁻¹
- kd (fit header over a trace without response) [10]: 6.97e-06 s⁻¹
- EC50 [4]: 0.0045 µM
- binding result [11]: no binding
